In patent US20240376226A1 (JANUX THERAPEUTICS, published 2024):

Target: T1, CD3 (UniProt P07766 23-126)
T1 construct: also called CD3-biotin; CD3 biotin
Experiment: ELISA, antibody titrated on captured antigen

T1 sequence (P07766 23-126): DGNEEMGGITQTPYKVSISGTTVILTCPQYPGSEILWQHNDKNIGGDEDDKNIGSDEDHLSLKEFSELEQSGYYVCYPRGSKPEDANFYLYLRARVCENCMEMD

B1: SP34 (Ab-9, Ab-10) (antibody, mouse IgG1, V domains shown)
VH: EVQLVESGGGLVQPKGSLKLSCAASGFTFNTYAMNWVRQAPGKGLEWVARIRSKYNNYATYYADSVKDRFTISRDDSQSILYLQMNNLKTEDTAMYYCVRHGNFGNSYVSWFAYWGQGTLVTVSS
VL: QAVVTQESALTTSPGETVTLTCRSSTGAVTTSNYANWVQEKPDHLFTGLIGGTNKRAPGVPARFSGSLIGDKAALTITGAQTEDEAIYFCALWYSNLWVFGGGTKLTVLQ
notes: used naked or chemically biotinylated; also called SP34-biotin
B1 was tested, and the EC50 was less than 1 nM.
